Measurements reported in patent US20250027068.

Target: pooled human IgG (human IgG1, 2, 3 and 4)

Protein | Enzyme Activity Endpoint Assay (purified): Fab′2 [ng/µL] | Enzyme Activity Endpoint Assay (purified): Fc [ng/µL] | Enzyme Activity Endpoint Assay (purified): IgG [ng/µL] | Enzyme Activity Endpoint Assay (purified): scIgG [ng/µL]
PRT-475 (protein) MVTSVWTKGVTPPTNFRKIVDGNIAYYHAPYVANQGWYDITKTFNGKDDLLCGAATAGNMLHWWFDQNKEQIENYLKKHPEKQKINFNGEQMFDVKEAIDTKDSQLDSKLFEYFKEKAFPYLSTKHLGVFPDHVIDMFINGYRLSLTNHGPTPVKRGSKDPRGGIFDAVFTRGDQSKLLTNRHDLKNKTLKEISDLIKQELTEGKALGISHTYANVRINHVINLWGADFDAEGNLEAIYVTDSDSNASIGMKKYFVGVNSNGKVAISAKEIEEDNIGAQVLGLFTLSTGQDIWNQTNLEHHHHHH | 1150 | 413 | 0 | 0
PRT-509 (protein) MITSVWTKGVTPPTDFRKIVDGNIAYYHAPYKAGQGWYDITKTFNGKDDLLCGAATAGNMLHWWFDQNKEEIEAYLKKHPEKQKIMFGDQELLDVRKVINTKDSQTNSALFNYFKDKAFPNLSARRLGVMPDLVLDMFINGYYLNVYKTQTTDVNRTYQTKDRRGGIFDAVFTRGDQSKLLTERHDFKEKTLKEISDLIKQELTEGKALGLSHTYANVRINHVINLWGADFDSNGNLEAIYVTDSDSNASIGMKKYFVGVNSAGKVAISAKEIKEDNIGAQVLGLFTLSTGQDIWNQTNLEHHHHHH | 21 | 26 | 0 | 0
PRT-643 (protein) MQITSVWTKGVTPLTPEQFRYNNEDVIHAPYLAHQGWYDITKAFDGKDNLLCGAATAGNMLHWWFDQNKTEIEAYLSKHPEKQKIIFNNQELFDLKAAIDTKDSQTNSQLFNYFRDKAFPNLSARQLGVMPDLVLDMFINGYYLNVFKTQSTDVNRPYQDKDKRGGIFDAVFTRGDQTTLLTARHDLKNKGLNDISTIIKQELTEGRALALSHTYANVSISHVINLWGADFNAEGNLEAIYVTDSDANASIGMKKYKVGYNKDGRVAISAYKIEGENIGAQVLGLFTLSSGKDIWQKLSLEHHHHHH | 664 | 409 | 33 | 226
PRT-687 (protein) MQITSVWTKGVTPLTPEQFRYNNEDVIHAPYKPHQGWYDITKTFNGKDNLLCGAATAGNMLHWWFDQNKTEIEAYLKKYPEKQKIIFNNQKLFDLRKAINTKDSQTNSALFNYFRDKAFPNLSARQLGVMPDLVLDMFINGYYLNVFKTQSTDVNRPYQTRDKRGGIFDHVFGRGDQTTLLTARHDLKNKTLNEISQIIKQELSEGKALALSHTYANVSISHVINLWGADFNAEGNLEAIYVTDSDANAKIGMKKYYVGKNAHGKVAISAKKIEGENIGAQVLGLFTLSSGKDIWQKLSLEHHHHHH | 738 | 420 | 0 | 295
PRT-497 (protein) MVTSVWTKGVTPPTDFRKIVDGNIAYYHAPYKAGQGWYDITKTFNGKDDLLCGAATAGNMLHWWFDQNKEYIEAYLKKHPEKQKIMFGDQELLDVRKAINTKGSQKNSELFNYFRDKAFPNLSARRLGVMPDLVLDMFINGYYLNVTKTQTTDVNRTYQEKDKRGGIFDAVFTRGDQSKLLTSRHDFKEKGLKEISDLIKQELTEGKALGLSHTYANVRINHVINLWGADFDSDGNLKAIYVTDSDSNASIGMKKYFVGVNSAGKVAISAKEIKEDNIGAQVLGLFTLSTGQDIWNQTNLEHHHHHH | 0 | 0 | 0 | 0
PRT-635 (protein) MQITSVWTKGVTPLTPDQFTNQGEDVIHAPYTPNQGWYDITKAFDGKDNLLCGAATAGNMLHWWFDQNKTEIEAYLSKHPEKQKIIFNNQELFDLKAAIDTKDSQTNSQLFNYFRDKAFPNLSARQLGVMPDLVLDMFINGYYLNVFKTQSTDVNRPYQDKDKRGGIFDAVFTRGDQTTLLTARHDLKNKGLNDISTIIKQELTEGKALALSHTYANVSISHVINLWGADFNAEGNLEAIYVTDSDANASIGMKKYFVGINAHGHVAISAKKIEGENIGAQVLGLFTLSSGKDIWQKLSLEHHHHHH | 0 | 0 | 0 | 0
PRT-449 (protein) MVTSVWTKGVTPPTDFRKIVDGNIAYYHAPYKAGQGWYDITKTFNGKDDLLCGAATAGNMLHWWFDQNKDQIEAYLKEHPEKQKINFNGEQMFDVKEAIDTKDDQTNSKLFEYFKEKAFPYLSTKHLGVFPDHVLDMFINGYRLSLTNHGPTPVKEGSKDPRGGIFDAVFTRGDQSKLLTSRHDFKEKTLKEISDLIKQELTEGKALALSHTYANVRINHVINLWGADFDSNGNLEAIYVTDSDSNASIGMKKYFVGVNSAGKVAISAKEIEDDNIGAQVLGLFTLSTGQDIWNQTNLEHHHHHH | 1100 | 365 | 0 | 0
PRT-461 (protein) MVTSVWTKGVTPPTDFRKIVDGNIAYYHAPYKAGQGWYDITKTFNGKDDLLCGAATAGNMLHWWFDQNKDQIERYLKEHPEKQKINFNGEQMFDVKEAIDTKDSQTDSKLFEYFKEKAFPYLSTKHLGVFPDHVLDMFINGYRLSLTNHGPTPVKEGSKDPRGGIFDAVFTRGDQSKLLTSRHDFKEKTLKEISDLIKQELTEGKALGLSHTYANVRINHVINLWGADFDSEGNLKAIYVTDSDSNASIGMKKYFVGVNSAGKVAISAKEIKEDNIGAQVLGLFTLSTGQDIWNQTNLEHHHHHH | 399 | 309 | 154 | 298
PRT-490 (protein) MVTSVWTKGVTPPTDFIYGEDVLHAPYKAGQGWYDITKTFNGKDNLLCGAATAGNMLHWWFDQNKEQIENYLKKHPEKQKIIFNNQELFDLKAAIDTKDSQLDSKLFEYFKEKAFPYLSTKHLGVFPDHVIDMFINGYRLSLTNHGPTPVKRGSKDKRGGIFDAVFTRGVQSKLLTNRHDFKEKTLKEISDLIKQELTEGKALGISHTYANVRINHVINLWGADFDAEGNLEAIYVTDSDTNASIGMKKYFVGVNSNGKVAISAKEIEEDNIGAQVLGLFTLSTGQDIWNQTNLEHHHHHH | 73 | 243 | 166 | 875
PRT-516 (protein) MITSVWTKGVTPPTDFIKGEDVFHAPYKAGQGWYDITKAFDGGDDLLCGAATAGNMLHWWFDQNKEEIEAYLKKHPEKQKIMFGDQELLDVRKVINTKDSQTNSALFNYFKDKAFPNLSARRLGVMPDLVLDMFINGYYLNVYKTQTTDVNRTYQTKDRRGGIFDAVFTRGDQSKLLTERHDLKNKTLNEISQLIKQELTEGKALGLSHTYANVRINHVINLWGADFDAEGNLEAIYVTDSDSNASIGMKKYFVGVNSAGKVAISAKEIKEDNIGAQVLGLFTLSTGQDIWNQTNLEHHHHHH | 16 | 23 | 0 | 0
PRT-457 (protein) MVTSVWTKGVTPPTDFIKGEDVFHAPYKAGQGWYDITKAFDGGDDLLCGAATAGNMLHWWFDQNKDQIEAYLKEHPEKQKINFNGEQMFDVKEAIDTKDDQTNSELFNYFKEKAFPYLSTKHLGVFPDHVLDMFINGYRLSLTNHGPTPVKRQEKDPRGGIFDAVFGRGDQTKLLTSRHDLKNKTLKEISDLIKQELTEGKALALSHTYANVRINHVINLWGADFDSNGNLEAIYVTDSDSNASIGMKKYFVGVNSAGKVAISAKEIEDDNIGAQVLGLFTLSTGQKIWNKTNLEHHHHHH | 450 | 379 | 138 | 337
PRT-469 (protein) MVTSVWTKGVTPPTDFIKGEDVFHAPYKAGQGWYDITKAFDGGDDLLCGAATAGNMLHWWFDQNKDQIERYLKEHPEKQKINFNGEQMFDVKEAIDTKDSQTNSELFNYFKEKAFPYLSTKHLGVFPDHVLDMFINGYRLSLTNHGPTPVKRQEKDPRGGIFDAVFGRGDQTKLLTSRHDLKNKTLKEISDLIKQELTEGKALGLSHTYANVRINHVINLWGADFDSEGNLKAIYVTDSDSNASIGMKKYFVGVNSAGKVAISAKEIKEDNIGAQVLGLFTLSTGQKIWNKTNLEHHHHHH | 41 | 139 | 50 | 248
PRT-495 (protein) MVTSVWTKGVTPPTDFIKGEDVFHAPYKAGQGWYDITKAFDGGDDLLCGAATAGNMLHWWFDQNKEYIEAYLKKHPEKQKIMFGDQELLDVRKAINTKGSQKNSELFNYFRDKAFPNLSARRLGVMPDLVLDMFINGYYLNVTKTQTTDVNRTYQEKDKRGGIFDAVFTRGDQSKLLTSRHDFKEKGLKEISDLIKQELTEGKALGLSHTYANVRINHVINLWGADFDSDGNLKAIYVTDSDSNASIGMKKYFVGVNSAGKVAISAKEIKEDNIGAQVLGLFTLSTGQDIWNQTNLEHHHHHH | 0 | 37 | 0 | 0
PRT-624 (protein) MQITSVWTKGVTPLTPEQFRYNNEDVIHAPYLAHQGWYDITKAFDGKDNLLCGAATAGNMLHWWFDQNKTEIEAYLSKHPEKQKIIFNNQELFDLKAAIDTKDSQTNSQLFNYFRDKAFPNLSARQLGVMPDLVLDMFINGYYLNVFKTQSTDVNRDYDDKDKRGGIFDDVFGKGDQTTLLTARHDLKNKGLNDISTIIKQELTEGRALALSHTYANVSISHVINLWGADFNAEGNLEAIYVTDSDANASIGMKKYFVGINAHGHVAISAKKIEGENIGAQVLGLFTLSSGKDIWQKLSLEHHHHHH | 89 | 251 | 96 | 626
